The values below come from US20230279147A1 (AELAN CELL TECHNOLOGIES, published 2023).

For data set [1], the system named is recombinant human H1.0 protein, full length, unmethylated.
Data set [2] addresses T1, H1.0K180me2 peptide (human).
T1 construct: also called H1.0Kme2 peptide
T1 peptide: CAKPVKASKPKKAKPVK(Me2)PK
Put plainly: ELISA on coated peptides, compared at the antibody concentration that gives the threshold O.D. 1.5. Here is the method: The specificity of the recombinant rabbit anti-H1.0K180me2 monoclonal IgG antibody clones for H1.0K180me2 peptide was determined using ELISA in FIG. 2A. Wells were coated with H1.0K180me2 peptide; 50 ul of peptide solution (5 ug/ml) was used to coat each well. 100 ul of each clone antibody was added to wells in a 2× dilution series. Curves for each peptide were generated by plotting antibody concentration against measured O.D at 450 nm. In order to directly compare the binding efficiencies of the different clones, a threshold cut-off was selected that intersected the linear range of each of the clone titration curves (horizontal dashed line at O.D. 1.5). Clone A (RW24) has the highest binding affinity for H1.0K180me2 peptide.
The non-specific binding of the antibody clones to unmodified H1.0 peptide was also determined by ELISA as above in FIG. 2B. Clones D (RW28) and E (RW36) both bound to unmodified H1.0 peptide with high affinity. At the threshold concentration calculated above, Clone A (RW24) was 20× more efficient at binding H1.0K180me2 peptide than unmodified H1.0 peptide, Clone B (RW6): 23×, Clone C (RW37): 22×, Clone D (RW28): 2×, Clone E (RW36): 5×.

Where no end group is shown, it is not given here. Me2 = dimethyl on Lys side chain (K(me2))

Regarding recombinant G9A (methyltransferase), the “in vitro methylation reaction analysed by LC-MS” value in data set [1] is on record as “G9A specifically methylates several C-terminal lysine residues, including H1.0K180me2”.

B1: Clone A (RW24), recombinant rabbit anti-H1.0K180me2 monoclonal IgG antibody (antibody, V domains shown)
VH: QSVEESGGRLVTPGTPLTLTCTVSGFSLNNYVMMWVRQAPGEGLEWIAAITTGGTTYYANWAKGRFTISKTSTTVDLKIISPTTEDTATYFCARDLYGDTSDDIWDAFDPWGPGTLVTVSS
VL: DPVLTQTPSSVSAAVGGTVTISCQSSESVYKNNNLAWYQQKPGQPPKLLIYSASTLASGVPSRFKGSGSGTQFTLTISGVQCDDAATYYCLGVYSDIFAF
notes: Tested as a full-length recombinant rabbit monoclonal IgG
Consider B1, for which the “fold more efficient at binding H1.0K180me2 peptide than unmodified H1.0 peptide” value in data set [2] came out at 20 ×.
